In the Human Domainome abundance scans (Beltran et al. 2025):
± gives the uncertainty stated by the source.

B1: Membrane-associated guanylate kinase, WW and PDZ domain-containing protein 2, residues 601 to 682; numbered along this chain, Q86UL8 (parent)
chain: AELMTLTIVKGAQGFGFTIADSPTGQRVKQILDIQGCPGLCEGDLIVEINQQNVQNLSHTEVVDILKDCPIGSETSLIIHRG

Variants of: B1
Test: abundance fitness (aPCA) (normalised: wild type 0, dead -1); higher = more abundant; growth selection in yeast, the domain comes from the species named
Details: Homo sapiens

Point of comparison: Q35G, abundance fitness 0.052 ± 0.11. Against it:
- K29S — within error, 0.039 ± 0.2
- K29E — within error, 0.084 ± 0.15
- K29Q — within error, -0.053 ± 0.13
- K29H — within error, 0.181 ± 0.33
- K29L — lower, -0.212 ± 0.099
- K29A — within error, -0.095 ± 0.1
- K29R — within error, -0.047 ± 0.062
- K29C — within error, -0.091 ± 0.13
- K29G — within error, -0.004 ± 0.087
- K29I — lower, -0.395 ± 0.29
- K29V — within error, -0.122 ± 0.086
- K29D — within error, 0.108 ± 0.28
- I31V — within error, -0.035 ± 0.084
- I31T — within error, -0.097 ± 0.089
- I31A — within error, -0.101 ± 0.31
- I31L — within error, 0.011 ± 0.083
- I31H — within error, -0.316 ± 0.31
- I31W — lower, -0.665 ± 0.15
- I31S — lower, -0.251 ± 0.079
- I31M — within error, -0.084 ± 0.12
- I31K — within error, 0.197 ± 0.41
- I31P — within error, -0.181 ± 0.28
- I31Q — within error, -0.091 ± 0.22
- I31N — within error, -0.219 ± 0.21
- I31Y — lower, -0.221 ± 0.14
- I31R — lower, -0.283 ± 0.081
- I31G — within error, -0.11 ± 0.084
- I31C — lower, -0.185 ± 0.093
- Q35R — within error, 0.021 ± 0.12
- Q35H — within error, 0.08 ± 0.29
- Q35T — within error, 0.209 ± 0.35
- Q35A — within error, 0.086 ± 0.15
- Q35L — within error, -0.115 ± 0.094
- Q35V — within error, -0.064 ± 0.17
- Q35S — within error, -0.005 ± 0.13
- Q35Y — within error, -0.066 ± 0.24
- Q35P — lower, -0.243 ± 0.16
- Q35K — within error, -0.278 ± 0.24
- Q26C — within error, -0.039 ± 0.13
- Q26R — within error, -0.032 ± 0.039
- Q26T — within error, -0.007 ± 0.055
- Q26K — within error, 0.038 ± 0.06
- Q26Y — within error, 0.316 ± 0.4
- Q26E — within error, 0.016 ± 0.055
- Q26N — within error, -0.139 ± 0.12
- Q26F — within error, -0.194 ± 0.23
- Q26D — within error, -0.176 ± 0.13
- Q26S — within error, -0.071 ± 0.05
- Q26G — within error, -0.032 ± 0.04
- Q26V — within error, -0.025 ± 0.042
- Q26A — within error, 0.063 ± 0.047
- Q26L — within error, -0.028 ± 0.041
- Q26I — within error, -0.111 ± 0.12
- Q26H — within error, -0.124 ± 0.14
- Q26W — within error, -0.105 ± 0.051
- Q26P — within error, 0.045 ± 0.088
- Q30D — within error, -0.022 ± 0.2
- Q30S — within error, -0.076 ± 0.098
- Q30T — within error, -0.117 ± 0.19
- Q30F — within error, 0.234 ± 0.24
- Q30C — within error, -0.205 ± 0.16
- Q30N — within error, -0.302 ± 0.48
- Q30V — within error, -0.102 ± 0.07
- Q30W — within error, 0.04 ± 0.27
- Q30P — within error, -0.103 ± 0.11
- Q30R — within error, -0.111 ± 0.094
- Q30Y — within error, -0.064 ± 0.15
- Q30E — within error, -0.188 ± 0.14
- Q30M — within error, 0.098 ± 0.12
- Q30L — within error, 0.066 ± 0.1
- Q30H — within error, -0.062 ± 0.15
- Q30K — within error, 0.363 ± 0.34
- Q30A — within error, -0.052 ± 0.17
- V28A — lower, -0.305 ± 0.22
- V28I — within error, 0.144 ± 0.23
- V28E — lower, -1.03 ± 0.27
- V28S — lower, -0.849 ± 0.2
- V28Q — lower, -0.718 ± 0.38
- V28L — lower, -0.215 ± 0.095
- V28C — within error, -0.077 ± 0.14
- V28N — lower, -0.564 ± 0.29
- V28T — lower, -0.538 ± 0.34
- V28G — lower, -0.655 ± 0.1
- V28P — lower, -1.09 ± 0.37
- P23T — within error, -0.058 ± 0.053
- P23E — within error, -0.022 ± 0.043
- P23K — within error, 0.023 ± 0.049
- P23H — lower, -0.303 ± 0.16
- P23V — lower, -0.297 ± 0.04
- P23N — within error, -0.045 ± 0.11
- P23I — lower, -0.17 ± 0.097
- P23D — within error, -0.129 ± 0.1
- P23W — within error, -0.03 ± 0.053
- P23F — within error, -0.106 ± 0.091
- P23Y — within error, -0.16 ± 0.13
- P23G — within error, -0.09 ± 0.039
- P23Q — within error, -0.029 ± 0.056
- P23R — within error, -0.03 ± 0.038
- P23M — within error, -0.072 ± 0.068
- P23C — within error, 0.021 ± 0.084
- P23L — within error, -0.018 ± 0.042
- T18K — within error, 0.044 ± 0.06
- T18E — within error, 0 ± 0.039
- T18G — within error, -0.068 ± 0.032
- T18D — within error, -0.011 ± 0.064
- T18C — within error, -0.044 ± 0.049
- T18N — within error, 0.001 ± 0.086
- T18P — lower, -1.1 ± 0.12
- T18F — lower, -0.149 ± 0.088
- T18S — within error, -0.013 ± 0.038
- T18Y — within error, -0.032 ± 0.093
- T18W — within error, -0.075 ± 0.04
- T18M — within error, -0.061 ± 0.052
- T18H — lower, -0.134 ± 0.073
- T18L — within error, 0.01 ± 0.038
- T18Q — within error, -0.066 ± 0.048
- T18I — within error, 0.008 ± 0.065
- T18V — within error, -0.024 ± 0.033
- C37F — within error, 0.204 ± 0.49
- C37E — within error, 0.005 ± 0.12
- C37Q — within error, -0.113 ± 0.16
- C37W — lower, -0.287 ± 0.18
- C37M — within error, -0.16 ± 0.15
- C37I — within error, -0.173 ± 0.27
- C37S — within error, 0.012 ± 0.18
- C37D — within error, -0.052 ± 0.1
- C37G — lower, -0.28 ± 0.097
- C37K — lower, -0.208 ± 0.11
- C37Y — within error, -0.036 ± 0.21
- C37R — lower, -0.163 ± 0.08
- C37A — lower, -0.195 ± 0.11
- C37P — lower, -0.384 ± 0.18
- C37T — within error, -0.05 ± 0.15
- C37V — within error, -0.119 ± 0.099
- P38E — within error, -0.11 ± 0.09
- P38G — within error, -0.067 ± 0.077
- P38S — within error, -0.056 ± 0.094
- P38H — within error, -0.363 ± 0.36
- P38V — within error, -0.097 ± 0.088
- P38R — within error, -0.13 ± 0.098
- P38A — within error, -0.096 ± 0.12
- P38Q — within error, -0.121 ± 0.14
- P38C — within error, -0.158 ± 0.11
- P38W — within error, -0.09 ± 0.15
- P38T — within error, -0.038 ± 0.096
- P38K — within error, -0.001 ± 0.17
- P38L — within error, 0.037 ± 0.098
- S22G — within error, 0.03 ± 0.061
- S22D — within error, 0.048 ± 0.27
- S22P — lower, -0.671 ± 0.19
- S22N — lower, -0.39 ± 0.17
- S22C — within error, -0.117 ± 0.2
- S22R — within error, 0.03 ± 0.13
- S22Y — within error, -0.04 ± 0.23
- S22A — within error, 0.075 ± 0.1
- S22F — within error, -0.105 ± 0.094
- S22W — within error, -0.056 ± 0.15
- S22Q — within error, 0.023 ± 0.1
- S22V — within error, -0.063 ± 0.13
- S22E — within error, -0.114 ± 0.097
- S22L — within error, -0.049 ± 0.085
- S22K — within error, 0.062 ± 0.2
- S22T — within error, -0.076 ± 0.11
- A20K — within error, -0.026 ± 0.18
- A20G — within error, -0.069 ± 0.1
- A20E — within error, -0.147 ± 0.16
